Assay: soluble on expression in E. coli; label from the status in PepcDB or PDB records

MPNAGELASLMEENAMPKVVVRNFAISLDGYGAGPDQSLQNPLGVKGEELHQWAFKTRTFHRMFGKEGGSTGTDENFSEKSFENIGAWVLGRNMFGPVRGAWPDESWKGWWGEEPPYHVPVFVLTHHARPSFTMKGGTEFHFVTDGIEAALDRALTAANGKDVRIGGGVSTIRQYMAAGMIDELHLALAPVFLGKGEQLFEGLDLPALGYRCTGTVAGEGATHLIIEKV
soluble on expression in E. coli: not soluble

MSLEQLLGRGEAAPSVRYDETIQKIIPIIKNSIRLPDDLRDRKTIWEFIRPQLMGIKALEAGFSMALWDWWGQKIGRPIFELLSVKTKMLPQTSYTISIGGFDELGAKLEEAKPYSILKVKLGTPKMDKEIITEIRRHTEKLIRVDANEGWTEDVALEMSFWLADRNIEFIEQPFPAKDLNSSIELKKKSPLEIFADENSLNSNDIKPIRHAFHGINIKLMKCGSLEEGKKMIDVARENGLKVMLGCMVETSVGITSASHLAGEVDFVDLDGNLLIKNDPYSGVLVNNGRLVLQKGNGSGVKLSSDYRNILEEGHHHHHH
soluble on expression in E. coli: soluble

QEKSARDLMIAVDLSGSMAVEDFTLPIATNELTNRAKNDTDSSATKSSTNDTGKGEKVNRLVAVKHVLNAFVKSREHDRLGLILFGDAPYLQAPFTDDIATWQALLNESDIGMAGQSTAFGDAIGLAISVFQQSDTQNRVLIVLTDGNDTASKVPPVEAAKVAAARDIKIYTIAIGDPSAVGEEKVDLEVLQAMAEITQGKSFQALNSEELLKVYAEI
soluble on expression in E. coli: not soluble

MSLMSSRVTIFTSCNDAYIYLLREGNSQAFPNAVGSKMVNLNTIPPKNGRDYYIALGLEGSANKLGVGIVKHPLLPKHANSDLSYDCEAEMLSNIRDTYVTPPGEGFLPRDTARHHRNWCIRLIKQALAEADIKSPTLDIDVICFTKGPGMGAPLHSVVIAARTCSLLWDVPLVGVNHCIGHIEMGREITKAQNPVVLYVSGGNTQVIAYSEKRYRIFGETLDIAIGNCLDRFARTLKIPNEPSPGYNIEQLAKKAPHKENLVELPYTVKGMDLSMSGILASIDLLAKDLFKGNKKNKILFDKTTGEQKVTVEDLCYSLQENLFAMLVEITERAMAHVNSNQVLIVGGVGCNVRLQEMMAQMCKDRANGQVHATDNRFCIDNGVMIAQAGLLEYRMGGIVKDFSETVVTQKFRTDEVYAAWRDEGHHHHHH
soluble on expression in E. coli: not soluble

MKSRLPFRYLEPTFCAGLLDDPVLLVNVRPLGRSILVDCGQIHHLAKRVLKSIDAVFVSHAHMDHFMGLDTLVRHIHVSPRTVELFGPPGIARKVAAKLAGYDWNLTESYWCTFRVSEVHPERIVRFTFPGSEGFPCLPEEETTREGTEIFRNDFLAVDADLCDHNTLPTLVFRITERPTFWIDEAKVDQEGLVPGEWLRELKHRFYRGRLDGKTITVPVRTAGDTVAQRIREGRELFEAIRRSQEPASIGYLTDIGAGDTNLATVRRLLAGVTLLACECSFLAADVAKARTSHHLCTADVSALAREIRPGWLLPMHLSKSYNTKGHLLYRELTLAPETRLIRLPEHLTPRPLLPGEFPGLWKIAEMAGDPNSLEHHHHHH
soluble on expression in E. coli: not soluble

SRLYRHNLMEDVFNMENESFMQETRLMENEYSVNLPTRFYYKKRWNNGFVNIVNIFRACMVIGTPGSGKSYAIVNSYIRQLIAKGFAIYIYDYKFDDLSTIAYNSLLKNMDKYEVKPRFYVINFDDPRRSHRCNPINPEFMTDISDAYEASYTIMLNLNRTWIEKQGDFFVESPIILLAAIIWYLKIYKNGIYCTFPHAVELLNKPYSDLFTILTSYPELENYLSPFMDAWKGNAQDQLQGQIASAKIPLTRMISPQLYWVMTGNDFSLDINNPKEPKLLCVGNNPDRQNIYSAALGLYNSRIVKLINKKKQLKCAVIIDELPTIYFRGLDNLIATARSNKVGVLLGFQDFSQLTRDYGEKESKVIQNTVGNIFSGQVVGETAKTLSERFGKVLQQRQSVSINRQDVSTSINTQLDSLIPASKIANLSQGTFVGAVADNFDERIEQKIFHAEIVVDHTKISAEEKAYQKIPVINDFKDRNGNDIMMQQIQRNYDQIKADAQAIINEEMRRIKNDPELRKRLGLEDEKGKDPDKS
soluble on expression in E. coli: not soluble

MGSDKIHHHHHHMAMNDNNINTCRYRVDVPYPPVRVVGPNPVYACEMLGNMGDAVSEMSDVTRYFYISVVTKPQYSWISACFRDISIVEMHHLNIFAELALLLGADPRLWSCRDCMQWWSPSYIGYPHGVRPLIAESIQAEEAAIRKYSHQADTICDMNIVAILRRIIQDEMYHLQIFREMYQQV
soluble on expression in E. coli: not soluble

MSLYLWNIQISSAFLEVISLYEVTLRNTLVKALEPNYRQYSILNDNFIRALRHETREALIVAVNKVSLNSHKYSAVRGAHGMIQPLKIDPRDVPVGKVVAELNFVFWENMLSKTHSSRWKAHYKEAFPNLVVEPNIGIECQIARIHQITGKVRELRNRICHHEPIFDENKINLSELYTQIKEVLNYISRLDKYTKEGHHHHHH
soluble on expression in E. coli: not soluble

MIEIAKIGDDFDRWQDLLALIMTSFAYMDGVIDPPSSAYRLTLENLAEKARAEIAFVALDSDELLGCLFCRPEPPASLYVGKLCVSPKAQGKGIGKLLLLQAEALARELALPALRLETRIELLSNHTKFAAWGFVKTAENAHAGYDRTTSIEMTKFLG
soluble on expression in E. coli: not soluble

MEDEIRKAAEILAKSKHAVVFTGAGISAESGIPTFRGEDGLWRKYDPEEVASISGFKRNPRAFWEFSMEMKDKLFAEPNPAHYAIAELERMGIVKAVITQNIDMLHQRAGSRRVLELHGSMDKLDCLDCHETYDWSEFVEDFNKGEIPRCRKCGSYYVKPRVVLFGEPLPQRTLFEAIEEAKHCDAFMVVGSSLVVYPAAELPYIAKKAGAKMIIVNAEPTMADPIFDVKIIGKAGEVLPKIVEEVKRLRSEK
soluble on expression in E. coli: soluble

MGHHHHHHSHMNIPLEELQRNLQFHAFISYSGHDSFWVKNELLPNLEKEGMQICLHERNFVPGKSIVENIITCIEKSYKSIFVLSPNFVQSEWCHYELYFAHHNLFHEGSNSLILILLEPIPQYSIPSSYHKLKSLMARRTYLEWPKEKSKRGLFWANLRAAINIKLTEQAK
soluble on expression in E. coli: soluble

MEAQAQGLLETEPLQGTDEDAVASADFSSMLSEEEKEELKAELVQLEDEITTLRQVLSAKERHLVEIKQKLGMNLMNELKQNFSKSWHDMQTTTAYKKTHETLSHAGQKATAAFSNVGTAISKKFGDMSYSIRHSISMPAMRRK
soluble on expression in E. coli: soluble

YDNLAHNLAVERGLTAGVLGSQGKTEIVQKLTQQRKKVDDAVNSLVQLNTPLISSSDSYDLLQDVQVQLNRLNQVRQGVDRLSPQIAPFGYYSNLNQLIIDNIDILIAQTQSRELGTLGDALISVIVMKERAGQARGALNGVFAKGSATSVLFSNIEGYIQSGDYASRKAQIAFPEQYRQSLQSHQSNPAWKKVEQVQQSFLNQSANLDNIQGPQATEWFPMATERIGLMNQLRNQMVDQMLSAA
soluble on expression in E. coli: not soluble

MAHHHHHHMTTLEKRIEEASGLIYRARAEETPDGNPLVAARNYIAAMEIITNICKDVSPESDNDKDRFFLFQVRQRMEVYQKRVQLLLSVAAEMGLDDIPEHVGNTVLDSPPHAGDRTGAADFENPAVPSTAPTSVPPPACADGFGENVPPLEYFFSQQPQAPTRPHPEETESVEALLGQFSFDEVKKE
soluble on expression in E. coli: soluble

MSLNVLIVDDEKLIRQGIINFFDWEKEGFQIVGEAANGKDALELISKNEPHIVMTDIVMPVMDGIDLVKRVKRDFPEVEIIVLSSFEEFEYVRSTFHSGVADYILKPRLNEKDLLKTLSEVRGKIPALAKVDSPSRAVPSISDQFEKILNGHAPLSQDDTGEKRFPKGPYRLAVITPIEEQDVHRRKQHLDEREQAITGIDVVCSIEKEGDAVLLLPLEGDVSSSMKQALDDFLKGRDAHALLVSSPFSSIYEAKEVYERDIPLLKQYSFYLPDTPLLIYDELPKTNEGVKTFDLNHFIELCKGRKFAIGFQYLLDYVEYMSTRYTQTSTECKAFLGNIIFNMIVLMGNLKYDVKELEREKYHYFATINAAKNVREATDCFYQFLEVTKQIISVYSNEGSSSIQKMLAYIEEHHSEPLSLSQLANYFHFNPSYLSAYFRQHHDEGFSEYLNKVRIRKAKEWLKSSTIPISEIYALVGYSDHSYFCKVFKKRTGMPPSRYRRENAEGHHHHHH
soluble on expression in E. coli: soluble
